Results published in PMC5585275.

Target: pre-translocation (PRE) complex of the E. coli 70S ribosome (E. coli) (UniProt P0A7K2)
Assay: stopped-flow fluorescence and FRET kinetics, global fit by numerical integration; PRE complexes (0.05 uM, six fluorescence reporters) mixed with saturating EF-G (4-5 uM), 1 mM GTP, 200 uM fusidic acid; buffer A (50 mM Tris-HCl pH 7.5, 70 mM NH4Cl, 30 mM KCl, 7 mM MgCl2), 37 °C; 5-step model, k-1/k1 constrained to 65/55 uM; KinTek Explorer

- kon: 4.2e+07 M⁻¹ s⁻¹
Substance: elongation factor G (from UniProt P0A6M8 1-704) (enzyme)
